Test results reported in the supplement of paper PMC10567573.
± gives the standard deviation.

Experiment: protein stability index of a GFP-peptide fusion (GPS, HEK-293T) (PSI 1-6); higher = more stable
Conditions: c terminus: a fixed tail appended
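Note: 24-mer peptide tiles fused after GFP, lentivirally expressed, FACS-sorted into six equal bins by GFP/DsRed ratio, decoded by Illumina sequencing, PSI is the read-weighted mean bin number.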

Row | Sequence | protein stability index (treatment: DMSO) | protein stability index (treatment: MLN4924 1 uM, 8 h)
1 | AAIKVNDSVPFHLGWNSTERSLRL [MYORG] | 2.61 ± 0.16 | 2.81 ± 0.38
2 | AALNMSLGMVTPVNDLRGSDSIAY [ADD1] | 2.48 ± 0.37 | 2.62 ± 0.22
3 | ADGGGAPPQGGCGGGGCDRYEPLP [KCNA3] | 4.54 ± 0.32 | 4.75 ± 0.16
4 | ADLLAGFGGSFMAPSPSPVTPAQN [SNAP91] | 4.16 ± 0.38 | 4.28 ± 0.24
5 | ADLRLGGQPAPPQLLLGRLFRWPD [SMAD6] | 2.84 ± 0.13 | 2.83 ± 0.23
6 | ADWTQGLPWRFEELLTCSHWPSFF [TEX19] | 2.54 ± 0.67 | 2.6 ± 0.58
7 | AEADEPTTHFQSIPDAFWWAVVTM [KCNA4] | 2.04 ± 0.76 | 2.11 ± 0.22
8 | AEAEALYSAYIRRCACAASSDESP [TTC32] | 3.25 ± 0.28 | 3.42 ± 0.3
9 | AEDYLTWKEWGFTGVQEVLSALLR [SPAG8] | 2.28 ± 0.33 | 2.19 ± 0.4
10 | AEEFEQPTLSCEKYLTYDQLRKQK [ELOA2] | 4.71 ± 0.31 | 4.9 ± 0.11
11 | AEELALEQAKKESEDQKRLKQAKE [CHCHD3] | 5.72 ± 0.22 | 5.41 ± 0.29
12 | AEESNPPLQDFPNSISSDKEATVP [MIA2] | 5.41 ± 0.1 | 5.36 ± 0.25
13 | AEGNNQAPGEEEEEEEEATNTHPP [CHGA] | 5.35 ± 0.43 | 5.61 ± 0.34
14 | AEMPHTETVSPLPSSMDLLIQDSP [NANOGP8] | 5.09 ± 0.19 | 5.32 ± 0.2
15 | AEPDMDDPAYIAVLVLIFNAAKTC [INTS4] | 2.37 ± 0.47 | 2.12 ± 0.29
16 | AERLGVTFFEVSPLCNFNIIESFT [RAB40A] | 2.32 ± 0.65 | 2.5 ± 0.46
17 | AESFLLKSPIAPCSLDKRVILIFH [CDC25B] | 2.75 ± 0.73 | 2.68 ± 0.96
18 | AESRELPVRCAGDWLPRGLGWGGR [ALG2] | 2.53 ± 0.053 | 2.54 ± 0.29
19 | AFDFDYGNCKYKVDCACLKENPEC [KMT2E] | 3.53 ± 0.17 | 3.54 ± 0.42
20 | AFEFKKPVRPVSRGCLHSHGLQEG [CDC25A] | 2.87 ± 0.28 | 2.82 ± 0.23
21 | AGLDWQSLGQMKELGVIFYNCSCL [PLD5] | 3.12 ± 0.15 | 3.26 ± 0.43
22 | AGLLIIVLAIIAREGDCAPEEKIW [MAGEA3] | 3.25 ± 0.46 | 2.8 ± 0.34
23 | AGPQSQVLCGVVMDRSLVQDAPLS [ADD1] | 3.62 ± 0.2 | 3.59 ± 0.11

Row | Sequence | protein stability index (treatment: DMSO) | protein stability index (treatment: MLN4924 1 uM, 8 h)
24 | AGQLMGFFKGIDQDIERGVQSEIF [LYSMD4] | 2.71 ± 0.33 | 2.75 ± 0.34
25 | AGRGGAAGTAGVGETGSGDQAGGE [MYOZ1] | 5.63 ± 0.24 | 5.43 ± 0.32
26 | AGRPSLLRHDEVRTYFHEFGHVMH [NLN] | 2.48 ± 0.13 | 2.45 ± 0.47
27 | AHKCLECGKCFSQNTHLTRHQRTH [ZNF263] | 4.92 ± 0.14 | 5 ± 0.3
28 | AIPIKSWFSDPSDTALLNLLPMLD [CTDNEP1] | 2.33 ± 0.16 | 2.47 ± 0.3
29 | AKFDFLTRKHHCRRCGKCFCDRCC [ZFYVE21] | 3.08 ± 0.29 | 3.45 ± 0.44
30 | AKNFHVKAVMKTSVLLSWEIPENY [PTPRD] | 2.89 ± 0.27 | –
31 | AKREETKAMESQRAYRFVQGKDWG [SPOPL] | 3.09 ± 0.61 | 3.59 ± 0.37
32 | ALASISHVAHVTITTKTADGKCAY [MLH1] | – | 2.63 ± 0.3
33 | ALKMTWHVHCFTCAACKTPIRNRA [PDLIM7] | 2.5 ± 0.51 | 2.3 ± 0.58
34 | ALSYAQHTRQLISCGGDGGIVVWN [WDFY2] | 2.16 ± 0.47 | 2.12 ± 0.23
35 | ALVSHPEVPLISFTGSQPTAERIT [ALDH8A1] | 3.87 ± 0.2 | 3.87 ± 0.31
36 | AMTGTFPAYGMSPSLSTITSTSSS [DVL3] | 3.68 ± 0.24 | 3.61 ± 0.17
37 | ANFIEKVRFLEQQNAALRGELSQA [PRPH] | 3.39 ± 0.12 | 3.36 ± 0.39
38 | ANISIANKYDNTCLMIAAYKGHTD [FEM1B] | 2.75 ± 0.17 | 2.98 ± 0.32
39 | ANVTLSLDTVEEVLSVSKILHIPQ [KLHL14] | 2.31 ± 0.43 | 2.21 ± 0.38
40 | APAHVDEQVFLYENARSGAEAEPE [ZBED1] | 5.58 ± 0.21 | 5.51 ± 0.28
41 | APHSTFFDPIVLLPCDLPKVVSRA [LPCAT4] | 2.67 ± 0.31 | 2.72 ± 0.15
42 | APHTPPLPRRPRKGSSELGFPRVA [RNF208] | 4.17 ± 0.21 | 4.06 ± 0.13
43 | APMVAGALARLGTVTVISPLELMR [SLC25A39] | 2.35 ± 0.22 | 2.41 ± 0.32
44 | AQAAVQGPVGTDFKPLNSTPATTT [ZNF207] | 4.81 ± 0.24 | 4.89 ± 0.26
45 | AQAGGSKKAEQKKKEKIIEDKTFG [ZC3H15] | 5.12 ± 0.17 | 5.23 ± 0.16
46 | AQEVSPCGPPSLGAVLALVAIFIM [MFSD9] | 2 ± 0.15 | 1.93 ± 0.39

Row | Sequence | protein stability index (treatment: DMSO) | protein stability index (treatment: MLN4924 1 uM, 8 h)
47 | AQHKFLVAVESMEPNNIVVLLQTS [TCF25] | 2.58 ± 0.54 | 2.35 ± 0.56
48 | AQRKEERWDMADNEQVLTTEHEKK [YJU2B] | 5.57 ± 0.21 | 5.6 ± 0.12
49 | AQTLAYGDMNHEWIGNEWLPSLGL [PPFIA4] | 2.54 ± 0.43 | 2.24 ± 0.029
50 | ARARERERLAHSRAAAAAAVAAAT [KCNA4] | 4.27 ± 0.24 | 4.38 ± 0.13
51 | ARDVQKIIGDYFSDQDPRVRTAAI [INTS4] | 3.03 ± 0.29 | 3.15 ± 0.21
52 | ARHFNYVGDLMGSLAYCLACGGGH [DHCR7] | 2.9 ± 0.71 | 2.68 ± 0.53
53 | ARSAASYMLFDPKDSVMQQNLVYY [P3H4] | 2.28 ± 0.48 | 2.08 ± 0.45
54 | ASAAAATAAFTTAKAAALSTKTPA [SPAG8] | 4.48 ± 0.26 | 4.57 ± 0.2
55 | ASAEAPGDSGERSEGEAMEICSEP [ZNF511] | 5.54 ± 0.21 | 5.47 ± 0.29
56 | ASAGKRRCFWLGMEGLETAEGSNS [SDE2] | 3.62 ± 0.26 | 3.84 ± 0.45
57 | ASGHEPGGSAVCASRVKLQHLPAQ [PLEKHN1] | 4.11 ± 0.27 | 3.95 ± 0.14
58 | ASPVPESSLTADLLSVDAFAAPSP [SNAP91] | 4.88 ± 0.28 | 4.97 ± 0.15
59 | ASQFLASASSSTTCCESTQRSVSD [IRX6] | 5.09 ± 0.22 | 5.09 ± 0.22
60 | ASQHSYPLNRFSSVPLDPMERPMS [CBY2] | 3.92 ± 0.33 | 3.98 ± 0.32
61 | ASTPAQTAAGGQGGPGGPGSDKQQ [NR2F2] | 5.58 ± 0.26 | 5.59 ± 0.3
62 | ASVTIQARAEQEEEFISNTLFKKI [CCDC6] | 3.54 ± 0.14 | 3.81 ± 0.12
63 | ATEWQKAGAPPPSGSAVSTAPQQK [SRPK2] | 5.42 ± 0.14 | 5.18 ± 0.21
64 | ATLAACTSNGWGVTDCKHTEDVGV [LOXL2] | 4.03 ± 0.42 | 4.08 ± 0.21
65 | ATLTQVSVEYGYRPGATAVPTPLT [FCHO1] | 2.39 ± 0.36 | 2.47 ± 0.26
66 | AVGAAAEAEADEEADPPASDLPTP [SNX8] | 5.5 ± 0.27 | 5.56 ± 0.19
67 | AVLLQLYVATEAILIALVGATPSY [SLC22A15] | 3.33 ± 0.37 | 3.26 ± 0.52
68 | AVVSCTPVHLVDKLPLPIALRSHL [RAB40B] | 2.65 ± 0.12 | 1.98 ± 0.41
69 | AWSQRSAAGRVCRPPGPAGTEQSR [CPOX] | 4.16 ± 0.22 | 4.29 ± 0.16

Row | Sequence | protein stability index (treatment: DMSO) | protein stability index (treatment: MLN4924 1 uM, 8 h)
70 | AYLVPYLVLLIIIGIPLFFLELAV [SLC6A17] | 3.83 ± 0.52 | 2.87 ± 0.28
71 | AYRTQVSSCCLHICQGIRGLWGTT [PKD2L1] | 2.34 ± 0.45 | 2.27 ± 0.28
72 | CAVTFFTILLSYGVILHSLKTQSL [OR4A15] | 3.59 ± 0.13 | 3.62 ± 0.69
73 | CEIQVRTLASAGGPDNLVLLNPEK [ADD1] | 3.42 ± 0.42 | 3.45 ± 0.26
74 | CFRFRQSSGRRVSLHCLLDQFDKD [DENND6A] | 2.5 ± 0.73 | 2.41 ± 0.53
75 | CGKSFSRSSHLVIHERTHERERLY [ZNF263] | 2.71 ± 0.13 | 2.86 ± 0.33
76 | CIENNIDLQVNRNFSLATNTKYSV [R3HDM1] | 2.59 ± 0.24 | 2.31 ± 0.43
77 | CNFSIPEELEFQYRRVNELLLSIL [ZER1] | 2.34 ± 0.44 | 2.32 ± 0.42
78 | CPLCTSDRGSCVSTTEGIQLAKEL [RHOBTB3] | 3.23 ± 0.29 | 3.58 ± 0.38
79 | CPSPEALSPEPPVYSLQDFDTLAT [PRKX] | 4.61 ± 0.26 | 4.84 ± 0.053
80 | CRCVASPPPDAAATAASSSASSPA [SLC25A25] | 4.52 ± 0.22 | 4.35 ± 0.29
81 | CSKSYSRRSFLIEHQRSHTGERPH [ZSCAN9] | 3.42 ± 0.073 | 3.52 ± 0.36
82 | CSQYDRVYCGAGVQKEHEEYMKNL [PCMTD2] | 2.93 ± 0.61 | 2.6 ± 0.55
83 | CSTNKPEGYRVSQALRENTYPFLA [FAF2] | 2.54 ± 0.2 | 2.53 ± 0.4
84 | CVDATRETNRLGRLINHSKCGNCQ [KMT5A] | 3.48 ± 0.41 | 3.84 ± 0.27
85 | CYKGHLEMVRFLLEAGADQEHKTD [ANKRD17] | 2.91 ± 0.13 | 3.02 ± 0.32
86 | CYLELFPAHLYFQAHGSEGLTFQG [PLEKHN1] | 2.89 ± 0.53 | 2.31 ± 0.26
87 | DAILYYYQSGGRIRRPVNVPIDIF [KCNA3] | 2.2 ± 0.61 | 2.58 ± 0.76
88 | DARMLDHLTKKDLRVHLKMVDSFH [PPFIA4] | 2.48 ± 0.37 | 2.78 ± 0.44
89 | DCMLSEEGATLLLRGLCANTVLRF [LRRC45] | 2.44 ± 0.48 | 2.42 ± 0.4
90 | DDFRSKYQTEQSLRLLVESDINSI [KRT34] | 3.77 ± 0.098 | 3.94 ± 0.27
